Earlier results, collected in article PMC3566329.

Legend:
[1] = molecular target: Methylamine dehydrogenase (quinone) (Paracoccus denitrificans) (UniProt P22619); assay: single turnover kinetics
[2] = molecular target: preMADH (Paracoccus denitrificans) (UniProt P22619)

Substance | Kd [1] | Kd [2]
MauG (di-ferrous) (from UniProt Q51658) | 10.1 µM | 
MauG (from UniProt Q51658) |  | < 1.5 µM
